These results are taken from article PMC8244865, “Recruitment of phospholipase Cγ1 to the non-structural membrane protein pK15 of Kaposi Sarcoma-associated herpesvirus promotes its Src-dependent phosphorylation” (PLoS Pathogens, 2021).

What all share (format): binding
The test system of experiment [1] is PLCγ1 cSH2 domain (vs nSH2 domain). The experiment can be described thus: GST-pulldown, individual SH2 domains. Particulars: in vitro phosphorylated; S-tagged individual SH2 domains transfected in HEK 293. As to the method:
Fig 3 Contribution of individual PLCγ1 SH2 domains to the interaction with phosphorylated pK15. The pK15 CT fused to GST, its Y^481F mutant, or GST alone were bound to glutathione beads, phosphorylated in vitro (+) or left unphosphorylated (-), and a GST pulldown was performed 32h after transfection into HEK-293T cells of expression vectors for S-tagged full-length PLCγ1 (FL) (A) or PLCγ1 SA (B) containing the indicated mutations. (C) pK15 CT WT, its Y^481F mutant or GST were bound to glutathione beads, phosphorylated in vitro (+) or left unphosphorylated (-), and used for a GST pulldown assay 32h after transfecting HEK 293T cells with expression vectors for S-tagged individual PLCγ1 nSH2 or cSH2 domains. […]
(§1) HEK293T cells were washed once with cold PBS 30 hours after transfection, lysed in IP buffer (50 mM Tris pH7.6, 60 mM NaCl, 6.25 mM EDTA, 1% (v/v) glycerol, 0.04% (v/v) NP-40) on ice for 30 minutes, sonicated shortly and cleared by centrifugation for 10 minutes at 20.000g, 4°C. […] Beads were then washed 5 times in 500 μl IP buffer (or for purified proteins IP buffer with 200 mM NaCl), suspended in 10 μl of 5x Laemmli sample buffer (60 mM Tris pH6.8, 24% (v/v) glycerol, 2% (v/v) SDS, 5% (v/v) β-mercaptoethanol, 0.01% Bromphenol Blue) and analysed by western blot.

Experiment [2] concerns PLCγ1 (transfected and endogenous, HEK-293T lysates). Description: GST-pulldown, full length PLCγ1. Particulars: in vitro phosphorylated by Src; transfected and endogenous PLCγ1, HEK 293 lysates; Western blot. The protocol: Fig 2 K15 phosphorylation results in a stronger binding to PLCγ1. (A) An expression plasmid for an S-tagged full length PLCγ1 or the empty vector (EV) were transfected in HEK-293T cells. After 30h cells were lysed and a GST-pulldown assay was performed with GST-fused pK15 CT (WT), the pK15 CT Y^481F mutant (Y^481F) or GST that had been bound to glutathione beads and previously phosphorylated by GST-6xHis Src (+) or left unphosphorylated (-). Bound proteins were analysed by WB using antibodies to the S tag on PLCγ1 and pTyr. (B) Untransfected HEK-293T cells were lysed and a GST-pulldown assay with pre-phosphorylated (+) or unphosphorylated (-) GST-fused pK15 CT WT/Y^481F or GST was performed and analysed by WB as in (A). (C) An expression plasmid for an S-tagged PLCγ1 SA or the empty vector were transfected in HEK-293T cells. […]
as §1
For orientation: Immunoblotting shows a protein as a band on a membrane.

Experiment [3] concerns PLCγ1 SA and PLCγ1 tSH2, cSH2 R^694L mutant. The experiment can be described thus: AlphaLISA, SA and tSH2 R694L mutant. The following applies: phosphorylated; 300 nM each protein. As to the method: Fig 4 The PLCγ1 cSH2 domain is required for the binding of PLCγ1 to phosphorylated pK15 in vitro and may serve as a dominant-negative inhibitor. GST-fused pK15 cytoplasmic tail WT (A), or its truncated mutant N2 [51] (B), were phosphorylated in vitro by 2xStrep-Src and an AlphaLISA was performed with the indicated His-tagged fragments of PLCγ1. Mean and standard deviation from at least two independent experiments with two technical replicates each are depicted. GST fusion proteins of the N1 (C) or N2 (D) truncation mutants of the pK15 cytoplasmic tail were phosphorylated in vitro by 2xStrep-Src and their interaction with recombinant purified PLCγ1 tSH2 (tandem SH2) or SA (γ-specific array) domains was measured by AlphaLISA in the presence of increasing concentrations (300 nM, 600 nM, 900 nM, 1200 nM) of the purified PLCγ1 cSH2. […] After 48h lysates were collected and analysed by Western blot using an antibody to PLCγ1 pY^783 to assess the level of PLCγ1 phosphorylation. (F) The intensities of the pPLCγ1 bands shown in panel E were quantified by densitometry, normalized to the values obtained with the empty vector (EV) in the presence of pK15, and plotted as relative values. […]
His-tagged PLCγ1 (SA, tSH2 or the isolated SH2 domains) was incubated at room temperature with GST-tagged K15P or its mutants for 1 hour. […] Emission at 615 nm was detected on BioTek Synergy 2 plate reader.
(In general: Alpha assays give light when donor and acceptor beads are brought close together.)

B1: pK15 CT^WT: pK15 cytoplasmic tail fused to GST at its N-terminal end, phosphorylated in vitro by Src (protein)
chain: SQLLNEVELQEVNRDPPNVFGYASILVSGAEESREPSPQPDQSGMSILRVDGGSAFRIDTAQAATQPTDDLYEEVLFPRN
modifications: tyrosine-phosphorylated in vitro by Src; sites not stated for this construct; left off: GST, N-terminal, kept
As to B1, in experiment [1], the “preference between SH2 domains (GST-pulldown)” value is “bound preferentially to the PLCγ1 cSH2 domain compared to its nSH2 domain”. Also, in experiment [2], the “interaction with PLCγ1 (GST-pulldown)” value is “substantial increase in its interaction with PLCγ1”. For the same molecule, in experiment [3], the “interaction (AlphaLISA)” value is reported as “markedly reduced binding”.
